Among the data in publication PMC9213077 are concentration values, retold here.

The assay addresses Fcγ receptors on THP-1 cells (human (endogenous in THP-1)) (UniProt P12314). The assay can be described thus: retention of opsonized erythrocytes on adherent THP-1 cells.
UniProt P12314, sequence (P12314 16-374): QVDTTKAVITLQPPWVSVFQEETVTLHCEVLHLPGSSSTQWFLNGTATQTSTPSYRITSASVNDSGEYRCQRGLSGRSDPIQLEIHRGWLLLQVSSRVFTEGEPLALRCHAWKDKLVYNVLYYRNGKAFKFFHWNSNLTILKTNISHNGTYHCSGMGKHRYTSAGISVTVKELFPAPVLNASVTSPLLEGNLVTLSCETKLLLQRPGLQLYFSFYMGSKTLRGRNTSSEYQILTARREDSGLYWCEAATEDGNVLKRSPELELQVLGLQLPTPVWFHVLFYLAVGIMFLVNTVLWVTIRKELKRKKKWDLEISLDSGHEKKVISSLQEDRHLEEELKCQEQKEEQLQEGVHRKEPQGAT

In turn, “rabbit antihuman erythrocyte antibody (Rockland; 209-4139), intact IgG” had a concentration at which erythrocyte retention occurred of 0.6 µg/mL.

“single-cleaved rabbit antihuman erythrocyte IgG generated by imlifidase (antibody)”: the concentration at which erythrocyte retention occurred came out at 5 µg/mL.
